{"source": "paper PMC10565355", "origin": "cited, not measured here", "biological_target": "Fibrinogen (Homo sapiens) (UniProt P02671)", "sequence (P02671 36-866, chain 1 of 3)": "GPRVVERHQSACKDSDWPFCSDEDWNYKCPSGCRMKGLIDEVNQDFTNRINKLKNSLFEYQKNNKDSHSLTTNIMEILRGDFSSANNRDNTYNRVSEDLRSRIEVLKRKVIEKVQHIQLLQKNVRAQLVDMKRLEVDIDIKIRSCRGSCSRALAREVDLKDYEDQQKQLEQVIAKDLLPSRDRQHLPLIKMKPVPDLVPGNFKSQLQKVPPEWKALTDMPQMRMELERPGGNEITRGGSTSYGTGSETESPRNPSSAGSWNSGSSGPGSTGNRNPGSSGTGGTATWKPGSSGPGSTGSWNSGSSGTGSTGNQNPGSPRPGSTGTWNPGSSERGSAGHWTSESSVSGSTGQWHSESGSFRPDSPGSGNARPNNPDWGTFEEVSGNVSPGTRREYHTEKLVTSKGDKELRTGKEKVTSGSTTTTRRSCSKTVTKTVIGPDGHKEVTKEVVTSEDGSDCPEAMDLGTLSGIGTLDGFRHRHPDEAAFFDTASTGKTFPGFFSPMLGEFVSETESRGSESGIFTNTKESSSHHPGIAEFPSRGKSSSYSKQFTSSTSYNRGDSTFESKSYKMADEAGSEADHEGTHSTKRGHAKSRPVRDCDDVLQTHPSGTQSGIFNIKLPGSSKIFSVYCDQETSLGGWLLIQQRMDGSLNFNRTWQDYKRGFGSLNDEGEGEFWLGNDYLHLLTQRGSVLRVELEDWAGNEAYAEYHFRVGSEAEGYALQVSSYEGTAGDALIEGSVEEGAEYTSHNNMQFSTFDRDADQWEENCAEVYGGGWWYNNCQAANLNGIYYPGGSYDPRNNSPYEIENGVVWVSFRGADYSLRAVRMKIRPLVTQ", "sequence (P02675 45-491, chain 2 of 3, further chain)": "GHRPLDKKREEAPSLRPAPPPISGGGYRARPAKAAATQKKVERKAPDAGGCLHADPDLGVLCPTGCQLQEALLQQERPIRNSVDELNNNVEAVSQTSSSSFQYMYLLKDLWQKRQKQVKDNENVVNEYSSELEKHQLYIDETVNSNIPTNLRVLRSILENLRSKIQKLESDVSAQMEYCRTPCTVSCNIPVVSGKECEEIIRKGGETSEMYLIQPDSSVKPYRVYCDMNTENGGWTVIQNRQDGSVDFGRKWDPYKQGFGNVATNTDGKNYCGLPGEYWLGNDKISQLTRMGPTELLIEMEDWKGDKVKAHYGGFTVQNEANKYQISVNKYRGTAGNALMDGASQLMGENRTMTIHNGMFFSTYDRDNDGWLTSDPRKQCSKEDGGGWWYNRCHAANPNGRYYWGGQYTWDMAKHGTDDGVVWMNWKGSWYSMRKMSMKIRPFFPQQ", "sequence (P02679 27-453, chain 3 of 3, further chain)": "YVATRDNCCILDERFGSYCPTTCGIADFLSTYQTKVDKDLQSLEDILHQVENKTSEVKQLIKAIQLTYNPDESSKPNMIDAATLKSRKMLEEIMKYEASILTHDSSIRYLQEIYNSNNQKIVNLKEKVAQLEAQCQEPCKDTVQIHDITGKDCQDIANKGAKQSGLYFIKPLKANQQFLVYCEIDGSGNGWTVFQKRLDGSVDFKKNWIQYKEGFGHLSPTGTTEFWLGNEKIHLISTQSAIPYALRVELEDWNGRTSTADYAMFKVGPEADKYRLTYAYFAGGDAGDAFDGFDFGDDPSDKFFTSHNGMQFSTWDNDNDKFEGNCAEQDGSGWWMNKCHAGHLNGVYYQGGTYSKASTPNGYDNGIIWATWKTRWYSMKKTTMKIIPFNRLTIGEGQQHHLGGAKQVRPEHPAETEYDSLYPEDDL"}
{"substance": "Efb EfbA (from UniProt A6QG59)", "values": [{"measurement": "Kd", "value": 1, "unit": "µM"}]}
